Measured values: patent US20250215059A1 (REGENTS OF THE UNIVERSITY OF COLORADO A BODY CORPORATE, published 2025)

B1: Halo tagged 10 serine repeat (other)
chain: SSSSSSSSSSMAEIGTGFPFDPHYVEVLGERMHYVDVGPRDGTPVLFLHGNPTSSYVWRNIIPHVAPTHRCIAPDLIGMGKSDKPDLGYFFDDHVRFMDAFIEALGLEEVVLVIHDWGSALGFHWAKRNPERVKGIAFMEFIRPIPTWDEWPEFARETFQAFRTTDVGRKLIIDQNVFIEGTLPMGVVRPLTEVEMDHYREPFLNPVDREPLWRFPNELPIAGEPANIVALVEEYMDWLHQSPVPKLLFWGTPGVLIPPAEAARLAKSLPNCKAVDIGPGLNLLQEDNPDLIGSEIARWLSTLEISG
modifications: JF646 Halo ligand covalently bound to the Halo tag
notes: also called 10-serines
B2: SRRM2 C-terminus-TNPO3-halo (other)
chain: MEGAKPTLQLVYQAVQALYHDPDPSGKERASFWLGELQRSVHAWEISDQLLQIRQDVESCYFAAQTMKMKIQTSFYELPTDSHASLRDSLLTHIQNLKDLSPVIVTQLALAIADLALQMPSWKGCVQTLVEKYSNDVTSLPFLLEILTVLPEEVHSRSLRIGANRRTEIIEDLAFYSSTVVSLLMTCVEKAGTDEKMLMKVFRCLGSWFNLGVLDSNFMANNKLLALLFEVLQQDKTSSNLHEAASDCVCSALYAIENVETNLPLAMQLFQGVLTLETAYHMAVAREDLDKVLNYCRIFTELCETFLEKIVCTPGQGLGDLRTLELLLICAGHPQYEVVEISFNFWYRLGEHLYKTNDEVIHGIFKAYIQRLLHALARHCQLEPDHEGVPEETDDFGEFRMRVSDLVKDLIFLIGSMECFAQLYSTLKEGNPPWEVTEAVLFIMAAIAKSVDPENNPTLVEVLEGVVRLPETVHTAVRYTSIELVGEMSEVVDRNPQFLDPVLGYLMKGLCEKPLASAAAKAIHNICSVCRDHMAQHFNGLLEIARSLDSFLLSPEAAVGLLKGTALVLARLPLDKITECLSELCSVQVMALKKLLSQEPSNGISSDPTVFLDRLAVIFRHTNPIVENGQTHPCQKVIQEIWPVLSETLNKHRADNRIVERCCRCLRFAVRCVGKGSAALLQPLVTQMVNVYHVHQHSCFLYLGSILVDEYGMEEGCRQGLLDMLQALCIPTFQLLEQQNGLQNHPDTVDDLFRLATRFIQRSPVTLLRSQVVIPILQWAIASTTLDHRDANCSVMRFLRDLIHTGVANDHEEDFELRKELIGQVMNQLGQQLVSQLLHTCCFCLPPYTLPDVAEVLWEIMQVDRPTFCRWLENSLKGLPKETTVGAVTVTHKQLTDFHKQVTSAEECKQVCWALRDFTRLFRGTELGSTSPVWWNSADIQSRCLIAQTTPVAGSQSLSSGAVATTTSSAGDHNGMLSVPAPGVPHSDVGEPPASTGAQQPSALAALQPAKERRSSSSSSSSSSSSSSSSSSSSSSSSSGSSSSDSEGSSLPVQPEVALKRVPSPTPAPKEAVREGRPPEPTPAKRKRRSSSSSSSSSSSSSSSSSSSSSSSSSSSSSSSSSSSSSSSSSSPSPAKPGPQALPKPASPKKPPPGERRSRSPRKPIDSLRDSRSLSYSPVERRRPSPQPSPRDQQSSSSERGSRRGQRGDSRSPSHKRRRETPSPRPMRHRSGGSGGSGGGSEIGTGFPFDPHYVEVLGERMHYVDVGPRDGTPVLFLHGNPTSSYVWRNIIPHVAPTHRCIAPDLIGMGKSDKPDLGYFFDDHVRFMDAFIEALGLEEVVLVIHDWGSALGFHWAKRNPERVKGIAFMEFIRPIPTWDEWPEFARETFQAFRTTDVGRKLIIDQNVFIEGTLPMGVVRPLTEVEMDHYREPFLNPVDREPLWRFPNELPIAGEPANIVALVEEYMDWLHQSPVPKLLFWGTPGVLIPPAEAARLAKSLPNCKAVDIGPGLNLLQEDNPDLIGSEIARWLSTLEISG
B3: Halo alone (other)
chain: MAEIGTGFPFDPHYVEVLGERMHYVDVGPRDGTPVLFLHGNPTSSYVWRNIIPHVAPTHRCIAPDLIGMGKSDKPDLGYFFDDHVRFMDAFIEALGLEEVVLVIHDWGSALGFHWAKRNPERVKGIAFMEFIRPIPTWDEWPEFARETFQAFRTTDVGRKLIIDQNVFIEGTLPMGVVRPLTEVEMDHYREPFLNPVDREPLWRFPNELPIAGEPANIVALVEEYMDWLHQSPVPKLLFWGTPGVLIPPAEAARLAKSLPNCKAVDIGPGLNLLQEDNPDLIGSEIARWLSTLEISG
modifications: JF646 Halo ligand covalently bound
notes: Control without a targeting motif; also called Halo tag; Halo protein
B4: Frag_0-Halo (SRRM2 a.a. 2651-2752) (other)
chain: PAKPGPQALPKPASPKKPPPGERRSRSPRKPIDSLRDSRSLSYSPVERRRPSPQPSPRDQQSSSSERGSRRGQRGDSRSPSHKRRRETPSPRPMRHRSSRSPMAEIGTGFPFDPHYVEVLGERMHYVDVGPRDGTPVLFLHGNPTSSYVWRNIIPHVAPTHRCIAPDLIGMGKSDKPDLGYFFDDHVRFMDAFIEALGLEEVVLVIHDWGSALGFHWAKRNPERVKGIAFMEFIRPIPTWDEWPEFARETFQAFRTTDVGRKLIIDQNVFIEGTLPMGVVRPLTEVEMDHYREPFLNPVDREPLWRFPNELPIAGEPANIVALVEEYMDWLHQSPVPKLLFWGTPGVLIPPAEAARLAKSLPNCKAVDIGPGLNLLQEDNPDLIGSEIARWLSTLEISG
modifications: JF646 Halo ligand covalently bound to the Halo tag
notes: PCR amplified from the SRRM2_FL-Halo cell line and expressed from a pcDNA plasmid with an added start codon
B5: Halo tagged 5 serine repeat (other)
chain: SSSSSMAEIGTGFPFDPHYVEVLGERMHYVDVGPRDGTPVLFLHGNPTSSYVWRNIIPHVAPTHRCIAPDLIGMGKSDKPDLGYFFDDHVRFMDAFIEALGLEEVVLVIHDWGSALGFHWAKRNPERVKGIAFMEFIRPIPTWDEWPEFARETFQAFRTTDVGRKLIIDQNVFIEGTLPMGVVRPLTEVEMDHYREPFLNPVDREPLWRFPNELPIAGEPANIVALVEEYMDWLHQSPVPKLLFWGTPGVLIPPAEAARLAKSLPNCKAVDIGPGLNLLQEDNPDLIGSEIARWLSTLEISG
modifications: JF646 Halo ligand covalently bound to the Halo tag
notes: also called 5-serines

Key:
[1] = biological target: T1, tau aggregates in HEK293 tau biosensor cells (4R repeat domain of tau (K18) with the P301S mutation fused to … (UniProt P10636-8 244-372)); assay: Halo (JF646) imaging; intensity in aggregate over adjacent region, 5 aggregates
T1 construct: domain: 4R repeat domain of tau (K18); Aggregated, insoluble form inside cells; the aggregates are seeded with brain homogenate of tau transgenic mice and may hold other proteins and RNA; Number of chains in an aggregate not defined; also called cytoplasmic tau aggregates; nuclear tau aggregates; not shown: CFP or YFP fused to the repeat domain
T1 sequence (P10636 561-689 P618S): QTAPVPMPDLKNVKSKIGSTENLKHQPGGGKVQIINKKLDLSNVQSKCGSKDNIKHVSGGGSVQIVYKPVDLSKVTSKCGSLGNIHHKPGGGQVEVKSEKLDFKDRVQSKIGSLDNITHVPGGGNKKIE

[2] = biological target: T1, tau aggregates in HEK293 tau biosensor …; assay: cell-based or functional assay
[3] = biological target: T1, tau aggregates in HEK293 tau biosensor …; assay: Halo (JF646) imaging in seeded HEK293 tau biosensor cells
[4] = biological target: T1, tau aggregates in HEK293 tau biosensor …; assay: Halo (JF646) imaging; intensity in aggregate over adjacent region, five aggregates
Excerpt: The locations of the serine repeats are shown in yellow. B) Quantification of the enrichment of the various Halo tagged constructs in cytoplasmic tau aggregates. Cells both expressing the halo tagged construct and containing a tau aggregate were identified by hand, and the average Halo intensity within the tau aggregates were normalized by an adjacent region outside of the tau aggregate to calculate enrichment. […] C) Representative images of cells expressing the various Halo tagged C-terminal SRRM2 fragments. Cells were labeled with 200 nM JF646 added directly to culture media for 24 hours prior to fixation and imaging.

Row | Binder | mean enrichment in cytoplasmic tau aggregates [1] [ratio] | tau aggregation by flow cytometry (FRET+ cells and integrated FRET density, normalized to no insert Halo) [2] [% decrease] | binding result [3] | mean enrichment in cytoplasmic tau aggregates [4] [ratio]
1 | B1 | 1.05 | – | – | –
2 | B2 | – | ~50 | – | –
3 | B3 | – | – | no binding | 1.08
4 | B4 | – | – | no binding | 1.1
5 | B5 | 0.95 | – | – | –
